According to US20220089698A1 (published 2022):

Assays:
HIV gp120 Bal = HIV gp120 Bal (HIV); assay: single-point ELISA; also: test concentration or dose not given here
HIV gp120 CAAN = HIV gp120 CAAN (HIV); assay: single-point ELISA; also: test concentration or dose not given here

Binder | ELISA (A450) (HIV gp120 Bal) | ELISA (A450) (HIV gp120 CAAN)
1.1.31-1 (antibody, human IgG1, kappa) heavy: QVQLLQSGAAVTKPGASVRVSCEASGYNIRDYFIHWWRQAPGQGLQWVGWINPKTGQPNNPRQFQGRVSLTRHASWDFDTFSFYMDLKALRSDDTAVYFCARQRSDYWDFDVWGSGTQVTVSSASTKGPSVFPLAPSSKSTSGGTAALGCLVKDYFPEPVTVSWNSGALTSGVHTFPAVLQSSGLYSLSSVVTVPSSSLGTQTYICNVNHKPSNTKVDKKVEPKSCDKTHTCPPCPAPELLAGPDVFLFPPKPKDTLMISRTPEVTCVVVDVSHEDPEVKFNWYVDGVEVHNAKTKPREEQYNSTYRVVSVLTVLHQDWLNGKEYKCKVSNKALPLPEEKTISKAKGQPREPQVYTLPPSREEMTKNQVSLTCLVKGFYPSDIAVEWESNGQPENNYKTTPPVLDSDGSFFLYSKLTVDKSRWQQGNVFSCSVLHEALHSHYTQKSLSLSPGK light: DIQMTQSPSSLSASVGDTVTITCQANGYLNWYQQRRGKAPKLLIYDGSKLERGVPSRFSGRRWGQEYTLTISSLQPEDIATYFCQVYEFVVPGTNLDLKRTVAAPSVFIFPPSDEQLKSGTASVVCLLNNFYPREAKVQWKVDNALQSGNSQESVTEQDSKDSTYSLSSTLTLSKADYEKHKVYACEVTHQGLSSPVTKSFNRGEC | 0.87 | 0.96
1.33.31-1 (antibody, human IgG1, kappa) heavy: QVQLVQSGAEVKKPGASVRVSCKASGYNIRDYFIHWWRQAPGQGLQWVGWINPKTGQPNNPRQFQGRVTLTRHASWDFDTFSFYMDLKALRSDDTATYFCARQRSDYWDFDVWGSGTQVTVSSASTKGPSVFPLAPSSKSTSGGTAALGCLVKDYFPEPVTVSWNSGALTSGVHTFPAVLQSSGLYSLSSVVTVPSSSLGTQTYICNVNHKPSNTKVDKKVEPKSCDKTHTCPPCPAPELLAGPDVFLFPPKPKDTLMISRTPEVTCVVVDVSHEDPEVKFNWYVDGVEVHNAKTKPREEQYNSTYRVVSVLTVLHQDWLNGKEYKCKVSNKALPLPEEKTISKAKGQPREPQVYTLPPSREEMTKNQVSLTCLVKGFYPSDIAVEWESNGQPENNYKTTPPVLDSDGSFFLYSKLTVDKSRWQQGNVFSCSVLHEALHSHYTQKSLSLSPGK light: DIQMTQSPSSLSASVGDTVTITCQANGYLNWYQQRRGKAPKLLIYDGSKLERGVPSRFSGRRWGQEYTLTISSLQPEDIATYFCQVYEFVVPGTNLDLKRTVAAPSVFIFPPSDEQLKSGTASVVCLLNNFYPREAKVQWKVDNALQSGNSQESVTEQDSKDSTYSLSSTLTLSKADYEKHKVYACEVTHQGLSSPVTKSFNRGEC | 0.92 | 1.18
1.34.31-1 (antibody, human IgG1, kappa) heavy: QVQLVQSGAEVKKPGASVRVSCKASGYNIRDYFIHWWRQAPGQGLQWVGWINPKTGQPNNPRQFQGRVTLTRHASWDFDTFSFYMDLKALRSDDTAVYFCARQRTDYWDFDVWGSGTQVTVSSASTKGPSVFPLAPSSKSTSGGTAALGCLVKDYFPEPVTVSWNSGALTSGVHTFPAVLQSSGLYSLSSVVTVPSSSLGTQTYICNVNHKPSNTKVDKKVEPKSCDKTHTCPPCPAPELLAGPDVFLFPPKPKDTLMISRTPEVTCVVVDVSHEDPEVKFNWYVDGVEVHNAKTKPREEQYNSTYRVVSVLTVLHQDWLNGKEYKCKVSNKALPLPEEKTISKAKGQPREPQVYTLPPSREEMTKNQVSLTCLVKGFYPSDIAVEWESNGQPENNYKTTPPVLDSDGSFFLYSKLTVDKSRWQQGNVFSCSVLHEALHSHYTQKSLSLSPGK light: DIQMTQSPSSLSASVGDTVTITCQANGYLNWYQQRRGKAPKLLIYDGSKLERGVPSRFSGRRWGQEYTLTISSLQPEDIATYFCQVYEFVVPGTNLDLKRTVAAPSVFIFPPSDEQLKSGTASVVCLLNNFYPREAKVQWKVDNALQSGNSQESVTEQDSKDSTYSLSSTLTLSKADYEKHKVYACEVTHQGLSSPVTKSFNRGEC | 0.91 | 0.92
1.1.32-1 (antibody, human IgG1, kappa) heavy: QVQLLQSGAAVTKPGASVRVSCEASGYNIRDYFIHWWRQAPGQGLQWVGWINPKTGQPNNPRQFQGRVSLTRHASWDFDTFSFYMDLKALRSDDTAVYFCARQRSDYWDFDVWGSGTQVTVSSASTKGPSVFPLAPSSKSTSGGTAALGCLVKDYFPEPVTVSWNSGALTSGVHTFPAVLQSSGLYSLSSVVTVPSSSLGTQTYICNVNHKPSNTKVDKKVEPKSCDKTHTCPPCPAPELLAGPDVFLFPPKPKDTLMISRTPEVTCVVVDVSHEDPEVKFNWYVDGVEVHNAKTKPREEQYNSTYRVVSVLTVLHQDWLNGKEYKCKVSNKALPLPEEKTISKAKGQPREPQVYTLPPSREEMTKNQVSLTCLVKGFYPSDIAVEWESNGQPENNYKTTPPVLDSDGSFFLYSKLTVDKSRWQQGNVFSCSVLHEALHSHYTQKSLSLSPGK light: DIQMTQSPSSLSASVGDTVTITCQANGYLNWYQQRRGKAPKLLIYDGSKLERGVPSRFSGRRWGQEYTLTISSLQPEDIATYFCQVYEFVTPGTRLDLKRTVAAPSVFIFPPSDEQLKSGTASVVCLLNNFYPREAKVQWKVDNALQSGNSQESVTEQDSKDSTYSLSSTLTLSKADYEKHKVYACEVTHQGLSSPVTKSFNRGEC | 0.93 | 1.04
1.35.31-1 (antibody, human IgG1, kappa) heavy: QVQLVQSGAEVKKPGASVRVSCKASGYNIRDYFMHWWRQAPGQGLQWVGWINPKTGQPNNPRQFQGRVTMTRHASWDFDTFSFYMDLSRLRSDDTATYFCARQRTDYWDFDVWGQGTMVTVSSASTKGPSVFPLAPSSKSTSGGTAALGCLVKDYFPEPVTVSWNSGALTSGVHTFPAVLQSSGLYSLSSVVTVPSSSLGTQTYICNVNHKPSNTKVDKKVEPKSCDKTHTCPPCPAPELLAGPDVFLFPPKPKDTLMISRTPEVTCVVVDVSHEDPEVKFNWYVDGVEVHNAKTKPREEQYNSTYRVVSVLTVLHQDWLNGKEYKCKVSNKALPLPEEKTISKAKGQPREPQVYTLPPSREEMTKNQVSLTCLVKGFYPSDIAVEWESNGQPENNYKTTPPVLDSDGSFFLYSKLTVDKSRWQQGNVFSCSVLHEALHSHYTQKSLSLSPGK light: DIQMTQSPSSLSASVGDTVTITCQANGYLNWYQQRRGKAPKLLIYDGSKLERGVPSRFSGRRWGQEYTLTISSLQPEDIATYFCQVYEFVVPGTNLDLKRTVAAPSVFIFPPSDEQLKSGTASVVCLLNNFYPREAKVQWKVDNALQSGNSQESVTEQDSKDSTYSLSSTLTLSKADYEKHKVYACEVTHQGLSSPVTKSFNRGEC | 1.05 | 0.99
1.32.31-1 (antibody, human IgG1, kappa) heavy: QVQLVQSGAEVTKPGASVRVSCEASGYNIRDYFIHWWRQAPGQGLQWVGWINPKTGQPNNPRQFQGRVSLTRHASWDFDTFSFYMDLKALRSDDTAVYFCARQRTDYWDFDVWGSGTQVTVSSASTKGPSVFPLAPSSKSTSGGTAALGCLVKDYFPEPVTVSWNSGALTSGVHTFPAVLQSSGLYSLSSVVTVPSSSLGTQTYICNVNHKPSNTKVDKKVEPKSCDKTHTCPPCPAPELLAGPDVFLFPPKPKDTLMISRTPEVTCVVVDVSHEDPEVKFNWYVDGVEVHNAKTKPREEQYNSTYRVVSVLTVLHQDWLNGKEYKCKVSNKALPLPEEKTISKAKGQPREPQVYTLPPSREEMTKNQVSLTCLVKGFYPSDIAVEWESNGQPENNYKTTPPVLDSDGSFFLYSKLTVDKSRWQQGNVFSCSVLHEALHSHYTQKSLSLSPGK light: DIQMTQSPSSLSASVGDTVTITCQANGYLNWYQQRRGKAPKLLIYDGSKLERGVPSRFSGRRWGQEYTLTISSLQPEDIATYFCQVYEFVVPGTNLDLKRTVAAPSVFIFPPSDEQLKSGTASVVCLLNNFYPREAKVQWKVDNALQSGNSQESVTEQDSKDSTYSLSSTLTLSKADYEKHKVYACEVTHQGLSSPVTKSFNRGEC | 0.95 | 0.9
1.31.31-1 (antibody, human IgG1, kappa) heavy: QVQLVQSGAEVTKPGASVRVSCEASGYNIRDYFIHWWRQAPGQGLQWVGWINPKTGQPNNPRQFQGRVSLTRHASWDFDTFSFYMDLKALRSDDTATYFCARQRSDYWDFDVWGSGTQVTVSSASTKGPSVFPLAPSSKSTSGGTAALGCLVKDYFPEPVTVSWNSGALTSGVHTFPAVLQSSGLYSLSSVVTVPSSSLGTQTYICNVNHKPSNTKVDKKVEPKSCDKTHTCPPCPAPELLAGPDVFLFPPKPKDTLMISRTPEVTCVVVDVSHEDPEVKFNWYVDGVEVHNAKTKPREEQYNSTYRVVSVLTVLHQDWLNGKEYKCKVSNKALPLPEEKTISKAKGQPREPQVYTLPPSREEMTKNQVSLTCLVKGFYPSDIAVEWESNGQPENNYKTTPPVLDSDGSFFLYSKLTVDKSRWQQGNVFSCSVLHEALHSHYTQKSLSLSPGK light: DIQMTQSPSSLSASVGDTVTITCQANGYLNWYQQRRGKAPKLLIYDGSKLERGVPSRFSGRRWGQEYTLTISSLQPEDIATYFCQVYEFVVPGTNLDLKRTVAAPSVFIFPPSDEQLKSGTASVVCLLNNFYPREAKVQWKVDNALQSGNSQESVTEQDSKDSTYSLSSTLTLSKADYEKHKVYACEVTHQGLSSPVTKSFNRGEC | 0.98 | 1.02
1.31.32-1 (antibody, human IgG1, kappa) heavy: QVQLVQSGAEVTKPGASVRVSCEASGYNIRDYFIHWWRQAPGQGLQWVGWINPKTGQPNNPRQFQGRVSLTRHASWDFDTFSFYMDLKALRSDDTATYFCARQRSDYWDFDVWGSGTQVTVSSASTKGPSVFPLAPSSKSTSGGTAALGCLVKDYFPEPVTVSWNSGALTSGVHTFPAVLQSSGLYSLSSVVTVPSSSLGTQTYICNVNHKPSNTKVDKKVEPKSCDKTHTCPPCPAPELLAGPDVFLFPPKPKDTLMISRTPEVTCVVVDVSHEDPEVKFNWYVDGVEVHNAKTKPREEQYNSTYRVVSVLTVLHQDWLNGKEYKCKVSNKALPLPEEKTISKAKGQPREPQVYTLPPSREEMTKNQVSLTCLVKGFYPSDIAVEWESNGQPENNYKTTPPVLDSDGSFFLYSKLTVDKSRWQQGNVFSCSVLHEALHSHYTQKSLSLSPGK light: DIQMTQSPSSLSASVGDTVTITCQANGYLNWYQQRRGKAPKLLIYDGSKLERGVPSRFSGRRWGQEYTLTISSLQPEDIATYFCQVYEFVTPGTRLDLKRTVAAPSVFIFPPSDEQLKSGTASVVCLLNNFYPREAKVQWKVDNALQSGNSQESVTEQDSKDSTYSLSSTLTLSKADYEKHKVYACEVTHQGLSSPVTKSFNRGEC | 0.98 | 1.04
